We go through one molecule from article PMC3531806.

The assay addresses T1, H1N1 WSN NP protein (nucleoprotein of influenza A/WSN/1933), wild type (influenza A virus A/WSN/1933 (H1N1)), P15682.
T1 chain: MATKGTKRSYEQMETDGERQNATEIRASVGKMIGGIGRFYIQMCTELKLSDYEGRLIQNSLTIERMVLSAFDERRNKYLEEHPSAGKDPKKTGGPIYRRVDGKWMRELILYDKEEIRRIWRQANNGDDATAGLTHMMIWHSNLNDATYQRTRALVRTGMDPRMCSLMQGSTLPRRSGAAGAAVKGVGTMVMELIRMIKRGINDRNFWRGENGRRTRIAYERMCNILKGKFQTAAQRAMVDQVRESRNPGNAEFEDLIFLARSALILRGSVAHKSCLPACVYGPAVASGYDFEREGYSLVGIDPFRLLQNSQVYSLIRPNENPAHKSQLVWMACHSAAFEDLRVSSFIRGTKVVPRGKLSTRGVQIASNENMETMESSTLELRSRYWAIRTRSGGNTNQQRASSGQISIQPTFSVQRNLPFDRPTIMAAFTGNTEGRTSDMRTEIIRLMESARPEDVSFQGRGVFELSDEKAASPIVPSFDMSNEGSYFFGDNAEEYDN
Put plainly: SEC. To be noted: remark: other sources report otherwise.

B1: H1N1 WSN NP protein (nucleoprotein of influenza A/WSN/1933), wild type, P15682 1-498 (natural protein)
chain: MATKGTKRSYEQMETDGERQNATEIRASVGKMIGGIGRFYIQMCTELKLSDYEGRLIQNSLTIERMVLSAFDERRNKYLEEHPSAGKDPKKTGGPIYRRVDGKWMRELILYDKEEIRRIWRQANNGDDATAGLTHMMIWHSNLNDATYQRTRALVRTGMDPRMCSLMQGSTLPRRSGAAGAAVKGVGTMVMELIRMIKRGINDRNFWRGENGRRTRIAYERMCNILKGKFQTAAQRAMVDQVRESRNPGNAEFEDLIFLARSALILRGSVAHKSCLPACVYGPAVASGYDFEREGYSLVGIDPFRLLQNSQVYSLIRPNENPAHKSQLVWMACHSAAFEDLRVSSFIRGTKVVPRGKLSTRGVQIASNENMETMESSTLELRSRYWAIRTRSGGNTNQQRASSGQISIQPTFSVQRNLPFDRPTIMAAFTGNTEGRTSDMRTEIIRLMESARPEDVSFQGRGVFELSDEKAASPIVPSFDMSNEGSYFFGDNAEEYDN
B1 yielded a half-life (t1/2) of the dissociation of trimers to monomers of 10 h and a stoichiometry N of 3.

For orientation: stoichiometry N means a count of units in the complex or per binding partner.
